For this experiment, the target named is SARS-CoV-2 Spike S1 domain (amino acids 14 to 681), HEK293-produced (SARS-CoV-2, UniProt P0DTC2 14-681). The experiment can be described thus: far-Western, overlay or dot blot. The settings on record: both partners purified.

B1: cyanovirin-N (natural protein)
chain: LGKFSQTCYNSAIQGSVLTSTCERTNGGYNTSSIDLNSVIENVDGSLKWQPSNFIETCRNTQLAGSSELAAECKTRAQQFVSTKINLDDHIANIDGTLKYE
notes: also called CV-N
As to B1, the binding result is “binds”.

The values are drawn from PMC10013841 (Proceedings of the National Academy of Sciences of the …, 2023).
